The test system of the data set is Escherichia coli TOP10. Put plainly: shrunken log2 fold change of peptide-encoding DNA abundance (4.5 h post-induction vs induction); higher = less antimicrobial activity (less host growth inhibition). The note with it: time post-induction: 4.5 h; library: site-saturation at positions 5, 18, 19, 20.

The text below walks through data of the supplement of paper PMC9112550, “Optimization of the antimicrobial peptide Bac7 by deep mutational scanning” (BMC Biology, 2022).
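Also: peptides expressed intracellularly from a pBAD plasmid library in pooled LB shake-flask culture, induced with 0.3% L-arabinose, DNA abundance read by NGS, three biological replicates, DESeq2 with apeglm shrinkage.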

Turning to RRIRRRPPRLPRPRPRPDLKPRP, the “shrunken log2 fold change” value was 0.162.
Consider RRIRKRPPRLPRPRPRPRNWPRP, for which the “shrunken log2 fold change” value was 0.95.
With RRIRQRPPRLPRPRPRPQCPPRP the figure was -0.229.
Then RRIRPRPPRLPRPRPRPEGVPRP, with 0.103; and RRIRMRPPRLPRPRPRPQYHPRP, with -0.299; and RRIRHRPPRLPRPRPRPWMSPRP, with -0.0135.
With RRIRKRPPRLPRPRPRPASHPRP, the “shrunken log2 fold change” value came to 0.442.
Then RRIRHRPPRLPRPRPRPKCLPRP, with -0.25; and RRIRARPPRLPRPRPRPWPMPRP, with 0.18; and RRIRIRPPRLPRPRPRPPVNPRP, with -0.456.
Then RRIRCRPPRLPRPRPRPVRSPRP, with 0.549; and RRIRFRPPRLPRPRPRPNFHPRP, with -0.218; and RRIRRRPPRLPRPRPRPFMIPRP, with -0.394.
Consider RRIRRRPPRLPRPRPRPNHHPRP, for which the “shrunken log2 fold change” value is -0.25.
On to RRIRHRPPRLPRPRPRPPCHPRP, for which the “shrunken log2 fold change” value is -0.253.
Turning to RRIRLRPPRLPRPRPRPYARPRP, the “shrunken log2 fold change” value is -0.44.
On to RRIRKRPPRLPRPRPRPHVIPRP, for which the “shrunken log2 fold change” value is -0.257.
Regarding RRIRWRPPRLPRPRPRPTYKPRP, the “shrunken log2 fold change” value was -0.467.
Regarding RRIRFRPPRLPRPRPRPRMAPRP, the “shrunken log2 fold change” value came out at 0.375.
With RRIRKRPPRLPRPRPRPAERPRP the figure was 0.123; with RRIRRRPPRLPRPRPRPALVPRP, 0.74.
With RRIRLRPPRLPRPRPRPLPNPRP the figure was 0.11.
With RRIRNRPPRLPRPRPRPDPLPRP the figure was -0.0328.
Consider RRIRCRPPRLPRPRPRPNGWPRP, for which the “shrunken log2 fold change” value is -0.183.
Then RRIRIRPPRLPRPRPRPAKAPRP, with -0.00404.
Then RRIRKRPPRLPRPRPRPGIPPRP, with -0.0948.
Take RRIRVRPPRLPRPRPRPLGKPRP: the “shrunken log2 fold change” value worked out at 0.0149.
Consider RRIRLRPPRLPRPRPRPVAIPRP, for which the “shrunken log2 fold change” value was 0.0902.
With RRIRHRPPRLPRPRPRPDAVPRP the figure was 0.0938; with RRIRMRPPRLPRPRPRPLTEPRP, 1.31.
With RRIRARPPRLPRPRPRPCIGPRP the figure was 0.0942; with RRIRRRPPRLPRPRPRPGGHPRP, 0.499.
For the sequence RRIRCRPPRLPRPRPRPGPHPRP, the “shrunken log2 fold change” value worked out at 0.0758.
Turning to RRIRSRPPRLPRPRPRPNFDPRP, the “shrunken log2 fold change” value is 0.221.
With RRIRIRPPRLPRPRPRPNMLPRP the figure was -1.18.
Then RRIRLRPPRLPRPRPRPQRSPRP, with 0.16.
As for RRIRHRPPRLPRPRPRPTYCPRP, the “shrunken log2 fold change” value was -0.129.
In the case of RRIRSRPPRLPRPRPRPPEQPRP, the “shrunken log2 fold change” value stood at 0.306.
With RRIRSRPPRLPRPRPRPLRHPRP the figure was 0.375.
Consider RRIRFRPPRLPRPRPRPFFCPRP, for which the “shrunken log2 fold change” value was -0.206.
RRIRRRPPRLPRPRPRPIHIPRP: the “shrunken log2 fold change” value was -0.579.
On to RRIRWRPPRLPRPRPRPFSVPRP, for which the “shrunken log2 fold change” value was -0.159.
Take RRIRVRPPRLPRPRPRPDLVPRP: the “shrunken log2 fold change” value was found to be 0.211.
With RRIRNRPPRLPRPRPRPSACPRP the figure was -0.0258.
Regarding RRIRGRPPRLPRPRPRPETFPRP, the “shrunken log2 fold change” value was found to be 1.08.
Then RRIRFRPPRLPRPRPRPIIIPRP, with -0.579; and RRIRFRPPRLPRPRPRPNFIPRP, with -0.308; and RRIRTRPPRLPRPRPRPISAPRP, with 0.259.
With RRIRARPPRLPRPRPRPLTEPRP, the “shrunken log2 fold change” value was 0.608.
For RRIRYRPPRLPRPRPRPIEEPRP, the “shrunken log2 fold change” value stood at 0.00911.
With RRIRVRPPRLPRPRPRPNNPPRP the figure was -0.352; with RRIRKRPPRLPRPRPRPSPMPRP, 0.132; with RRIRMRPPRLPRPRPRPEVIPRP, 0.0213.
As for RRIRYRPPRLPRPRPRPKVSPRP, the “shrunken log2 fold change” value was -0.0576.
With RRIRRRPPRLPRPRPRPDKEPRP the figure was 0.0257.
Turning to RRIRDRPPRLPRPRPRPSNRPRP, the “shrunken log2 fold change” value is -0.052.
Then RRIRLRPPRLPRPRPRPSNWPRP, with -0.196; and RRIRKRPPRLPRPRPRPPSWPRP, with 0.401.
With RRIRFRPPRLPRPRPRPTMHPRP the figure was -0.138.
In the case of RRIRHRPPRLPRPRPRPYWVPRP, the “shrunken log2 fold change” value was -0.26.
As to RRIRGRPPRLPRPRPRPTVDPRP, the “shrunken log2 fold change” value stood at 0.836.
Regarding RRIRNRPPRLPRPRPRPEQGPRP, the “shrunken log2 fold change” value was determined as 0.111.
On to RRIRCRPPRLPRPRPRPLWWPRP, for which the “shrunken log2 fold change” value came out at 0.204.
With RRIRHRPPRLPRPRPRPMNAPRP the figure was -0.282; with RRIRGRPPRLPRPRPRPREQPRP, 0.857.
Consider RRIRLRPPRLPRPRPRPITVPRP, for which the “shrunken log2 fold change” value is -0.216.
For RRIRGRPPRLPRPRPRPDLEPRP, the “shrunken log2 fold change” value came out at 0.288.
With RRIRGRPPRLPRPRPRPEESPRP the figure was 1.82; with RRIRERPPRLPRPRPRPCHYPRP, -0.224; with RRIRYRPPRLPRPRPRPMRGPRP, 0.156.
Then RRIRMRPPRLPRPRPRPGPSPRP, with 1.23; and RRIRIRPPRLPRPRPRPPKHPRP, with 0.00437; and RRIRPRPPRLPRPRPRPIEQPRP, with 0.000804.
For RRIRERPPRLPRPRPRPHPQPRP, the “shrunken log2 fold change” value is -0.103.
With RRIRTRPPRLPRPRPRPHPRPRP, the “shrunken log2 fold change” value came out at 0.467.
With RRIRARPPRLPRPRPRPKLTPRP the figure was 0.167; with RRIRFRPPRLPRPRPRPVNAPRP, 0.135; with RRIRHRPPRLPRPRPRPMINPRP, -0.305.
With RRIRGRPPRLPRPRPRPGIHPRP the figure was 0.251; with RRIRPRPPRLPRPRPRPKQYPRP, -0.29; with RRIRMRPPRLPRPRPRPLRNPRP, 1.17.
With RRIRIRPPRLPRPRPRPMNWPRP the figure was -0.135.
On to RRIRDRPPRLPRPRPRPQTLPRP, for which the “shrunken log2 fold change” value was 0.0519.
With RRIRKRPPRLPRPRPRPRTVPRP the figure was 0.244.
As for RRIRIRPPRLPRPRPRPGGNPRP, the “shrunken log2 fold change” value was -0.0373.
On to RRIRKRPPRLPRPRPRPERCPRP, for which the “shrunken log2 fold change” value turned out to be 0.559.
For the sequence RRIRRRPPRLPRPRPRPSQQPRP, the “shrunken log2 fold change” value is -0.0599.
Then RRIRKRPPRLPRPRPRPDKMPRP, with -0.48; and RRIRFRPPRLPRPRPRPLDCPRP, with -0.112.
As to RRIRDRPPRLPRPRPRPECPPRP, the “shrunken log2 fold change” value stood at 0.0118.
Then RRIRLRPPRLPRPRPRPMDLPRP, with -0.171.
Then RRIRARPPRLPRPRPRPAPFPRP, with 0.392; and RRIRYRPPRLPRPRPRPKPHPRP, with -0.1.
With RRIRWRPPRLPRPRPRPQNNPRP the figure was -0.622; with RRIRPRPPRLPRPRPRPESCPRP, 0.239; with RRIRRRPPRLPRPRPRPLQDPRP, 0.0495.
For RRIRRRPPRLPRPRPRPGIPPRP, the “shrunken log2 fold change” value was 0.322.
With RRIRWRPPRLPRPRPRPEQVPRP the figure was 0.21; with RRIRKRPPRLPRPRPRPWSNPRP, 0.202.
With RRIRERPPRLPRPRPRPGHYPRP, the “shrunken log2 fold change” value is -0.121.
Consider RRIRYRPPRLPRPRPRPCCLPRP, for which the “shrunken log2 fold change” value is -0.203.
Then RRIRPRPPRLPRPRPRPICDPRP, with -0.0726.
As to RRIRPRPPRLPRPRPRPMVAPRP, the “shrunken log2 fold change” value came out at 0.208.
For the sequence RRIRKRPPRLPRPRPRPHWSPRP, the “shrunken log2 fold change” value is 0.139.
For RRIRFRPPRLPRPRPRPMSKPRP, the “shrunken log2 fold change” value was -0.0951.
With RRIRIRPPRLPRPRPRPEPHPRP the figure was -0.0648; with RRIRIRPPRLPRPRPRPLDTPRP, -0.142; with RRIRNRPPRLPRPRPRPNEDPRP, 0.00927.
For RRIRIRPPRLPRPRPRPNRSPRP, the “shrunken log2 fold change” value is 0.00656.
As for RRIRERPPRLPRPRPRPIHPPRP, the “shrunken log2 fold change” value is -0.239.
With RRIRDRPPRLPRPRPRPTQYPRP the figure was -0.191.
As to RRIRRRPPRLPRPRPRPGSNPRP, the “shrunken log2 fold change” value was found to be 0.0402.
With RRIRIRPPRLPRPRPRPQLGPRP the figure was -0.0971; with RRIRHRPPRLPRPRPRPEWIPRP, -0.0632.
With RRIRNRPPRLPRPRPRPLTMPRP the figure was -0.429; with RRIRYRPPRLPRPRPRPQKNPRP, -0.555; with RRIRQRPPRLPRPRPRPDYLPRP, -0.212.
Then RRIRCRPPRLPRPRPRPWTCPRP, with -0.323; and RRIRNRPPRLPRPRPRPPDTPRP, with -0.0361.
Regarding RRIRLRPPRLPRPRPRPATMPRP, the “shrunken log2 fold change” value is -0.366.
With RRIRWRPPRLPRPRPRPREEPRP the figure was 0.55.
Turning to RRIRCRPPRLPRPRPRPYFRPRP, the “shrunken log2 fold change” value is -0.759.
With RRIRNRPPRLPRPRPRPDNYPRP the figure was -0.341; with RRIRCRPPRLPRPRPRPRMIPRP, 0.306.
RRIRRRPPRLPRPRPRPILFPRP: the “shrunken log2 fold change” value was -0.026.
